One molecule from PMC4882459 (The Journal of Biological Chemistry, 2016) can be followed below.

For this experiment, the target named is T1, C1q (human, UniProt P02745 23-245; P02746 28-253; P02747 29-245).
T1 construct: also called human C1q; purified C1q; source: bought: Calbiochem (purified); also endogenous, human serum; copies: + +
Put plainly: ELISA; C1q binding assay: ES-62, PCh-BSA or CWPS coated to give equivalent CRP binding; CRP 0.4 ug/ml added, then purified C1q at 0, 0.2, 2.0 and 5.0 ug/ml, 1 h at room temperature; detected with anti-C1q. The following applies: both partners purified. (In an ELISA, binding on a coated surface is turned into a signal by an enzyme label.)

T1 sequence (P02745 23-245, chain 1 of 3): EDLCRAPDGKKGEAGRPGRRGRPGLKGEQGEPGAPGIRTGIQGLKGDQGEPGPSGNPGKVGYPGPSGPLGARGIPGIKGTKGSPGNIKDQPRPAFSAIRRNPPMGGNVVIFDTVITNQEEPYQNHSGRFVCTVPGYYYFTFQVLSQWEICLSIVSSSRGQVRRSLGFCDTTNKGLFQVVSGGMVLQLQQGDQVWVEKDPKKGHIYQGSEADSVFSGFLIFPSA
T1 sequence (P02746 28-253, chain 2 of 3): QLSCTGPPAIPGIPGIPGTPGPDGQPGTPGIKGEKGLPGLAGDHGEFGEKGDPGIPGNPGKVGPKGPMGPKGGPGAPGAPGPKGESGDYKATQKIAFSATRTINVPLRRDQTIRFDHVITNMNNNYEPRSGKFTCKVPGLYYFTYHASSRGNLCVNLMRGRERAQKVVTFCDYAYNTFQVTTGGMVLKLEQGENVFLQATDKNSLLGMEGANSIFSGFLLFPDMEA
T1 sequence (P02747 29-245, chain 3 of 3): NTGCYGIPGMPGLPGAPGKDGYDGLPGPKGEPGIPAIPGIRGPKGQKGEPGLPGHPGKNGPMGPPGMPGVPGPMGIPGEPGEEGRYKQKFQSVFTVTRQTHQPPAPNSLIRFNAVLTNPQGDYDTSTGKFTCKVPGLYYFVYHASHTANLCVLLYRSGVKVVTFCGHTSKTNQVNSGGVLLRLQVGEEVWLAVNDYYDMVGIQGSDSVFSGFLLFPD

B1: C-reactive protein (native, human) (natural protein)
chain: QTDMSRKAFVFPKESDTSYVSLKAPLTKPLKAFTVCLHFYTELSSTRGYSIFSYATKRQDNEILIFWSKDIGYSFTVGGSEILFEVPEVTVAPVHICTSWESASGIVEFWVDGKPRVRKSLKKGYTVGAEASIILGQEQDSFGGNFEGSQSLVGDIGNVNMWDFVLSPDEINTIYLGGPFSPNVLNWRALKYEVQGEVFTKPQLWP
notes: C-reactive protein, human, native pentamer of subunits of ~25 kD; Used as purified protein, as purified protein added to diluted serum, and as the endogenous protein of normal human serum; also called CRP; native CRP; source: also endogenous, normal human serum
Take B1: the binding result was “binds”.
